Data: publication PMC7736355

Assays:
[1] = target: VP1 protein from GI.1 Norwalk strain (GI.1 WT) (human norovirus GI.1 Norwalk strain); assay: SEC; analytical size-exclusion chromatography, Superdex 200 Increase 10/300 GL in PBS, 200 µg VLPs; fractions analysed by SDS–PAGE
[2] = target: VP1 protein from GI.1 Norwalk strain (GI.1 WT) (human norovirus GI.1 Norwalk strain); assay: negative staining electron microscopy; VLP samples at ~0.1 mg/mL (0.01–0.05 mg/mL when fragments were present) in 10 mM HEPES pH 7.0, 150 mM NaCl; 0.75% uranyl formate; reference-free 2D class averages

## VP1 protein from GI.1 Norwalk strain (GI.1 WT) (natural protein)
[1]
  fraction of the sample present as VP1 dimers (rest in the void peak as non-dissociated VLPs): 20%
  stoichiometry N: 2
[2]
  stoichiometry N: 2
